{
  "source": "patent US20230024461A1",
  "about": "“METHODS FOR DUAL DNA/PROTEIN TAGGING OF OPEN CHROMATIN” (Beth Israel Deaconess Medical Center, Inc., priority 2019, published 2023)",
  "molecules": {"B1": {"name": "TP3: Tn5 transposase-AEAAAKEAAAKA linker-APEX2 peroxidase fusion, C-terminal FLAG; amino acid SEQ ID NO: 27 (protein)", "chain": "MITSALHRAADWAKSVFSSAALGDPRRTARLVNVAAQLAKYSGKSITISSEGSKAMQEGAYRFIRNPNVSAEAIRKAGAMQTVKLAQEFPELLAIEDTTSLSYRHQVAEELGKLGSIQDKSRGWWVHSVLLLEATTFRTVGLLHQEWWMRPDDPADADEKESGKWLAAAATSRLRMGSMMSNVIAVCDREADIHAYLQDKLAHNERFVVRSKHPRKDVESGLYLYDHLKNQPELGGYQISIPQKGVVDKRGKRKNRPARKASLSLRSGRITLKQGNITLNAVLAEEINPPKGETPLKWLLLTSEPVESLAQALRVIDIYTHRWRIEEFHKAWKTGAGAERQRMEEPDNLERMVSILSFVAVRLLQLRESFTPPQALRAQGLLKEAEHVESQSAETVLTPDECQLLGYLDKGKRKRKEKAGSLQWAYMAIARLGGFMDSKRTGIASWGALWEGWEALQSKLDGFLAAKDLMAQGIKIAEAAAKEAAAKAGKSYPTVSADYQDAVEKAKKKLRGFIAEKRCAPLMLRLAFHSAGTFDKGTKTGGPFGTIKHPAELAHSANNGLDIAVRLLEPLKAEFPILSYADFYQLAGVVAVEVTGGPKVPFHPGREDKPEPPPEGRLPDPTKGSDHLRDVFGKAMGLTDQDIVALSGGHTIGAAHKERSGFEGPWTSNPLIFDNSYFTELLSGEKEGLLQLPSDKALLSDPVFRPLVDKYAADEDAFFADYAEAHQKLSELGFADADYKDDDDK", "modifications": "C-terminal FLAG"}},
  "tested_on": "HT1080 cells",
  "experiment": "Co-immunofluorescence/ATAC-see analysis",
  "assay_type": "cell-based, human",
  "method": "Co-immunofluorescence/ATAC-see analysis. ATAC-see was performed similarly as previously described with slight modifications (Chen et al., Nat. Methods 13:1013-1020, 2016). Enzyme and transposon DNA were mixed at a 1:1.25 enzyme:MEDS-A/B-AF647 molar ratio and incubated at room temperature for 1 hour. Adherent cells were grown on glass coverslips (Fisher Scientific, 12-540A) until 80-90% confluent, washed with 1×PBS, fixed with 1% formaldehyde (Electron Microscopy Services) in 1×PBS for 10 minutes, and washed twice with ice-cold 1×PBS. Suspension cells were washed and resuspended with 1×PBS. 50,000 cells were added to poly-lysine slides and incubated at room temperature for 1 hour in a humidified chamber. An equal volume of 2% formaldehyde was added and incubated for 10 minutes, whereupon slides were washed twice with ice-cold 1×PBS. Immobilized cells were lysed by incubation with LB1 for 3 minutes followed by LB2 for 10 minutes at room temperature. Cells were then subject to tagmentation (20% dimethylformamide, 10 mM MgCl2, 20 mM Tris-HCl pH 7.5, 33% 1×PBS, 0.01% digitonin, 0.1% Tween-20, and either 80 pmol enzyme equivalent of enzyme:DNA complex in a total volume of 100 μL for adherent cells or 10 pmol enzyme equivalent of enzyme:DNA complex in a total volume of 50 μL for suspension cells) for 30 minutes at 37° C. in a humidified chamber. Subsequently, cells were washed with 50 mM EDTA and 0.01% SDS in 1×PBS three times for 15 minute each at 55° C., lysed for 10 minutes with 0.5% Triton X-100 in 1×PBS at room temperature, and blocked with 1% BSA and 10% goat serum in PBS-T for 1 hour in a humidified chamber. Primary antibody was added to slides in 1% BSA/PBS-T and incubated at 4° C. overnight; slides were then washed and subjected to secondary antibody staining for 1 hour. Slides were washed with PBS-T three times for 15 minutes each, stained with DAPI (Sigma, 1 μg/mL) for 1 minute, washed with PBS for 10 minutes, and mounted with Fluorescence Mounting Medium (Dako). Confocal microscopy images were taken with an LSM 880 Axio Imager 2 at 63× magnification (Zeiss). Images were processed with Fiji/ImageJ v2.0.0.\nPrimary antibodies used were anti-RNA polymerase II CTD repeat YSPTSPS (phospho S2) (rabbit, Abcam ab5095, 1:500), anti-H3K27Ac (rabbit, Abcam ab4729, 1:500), anti-H3K9me3 (rabbit, Abcam ab8898, 1:500), anti-CCDCl2 (rabbit, Atlas Antibodies HPA060530, 1:200), anti-SNRPA (mouse, 3F9-1F7, Sigma-Aldrich WH0006626M1, 1:100). […]\nQuantitative image analyses were performed with CellProfiler v3.1.5. […] Pearson correlation coefficients were determined by comparing ATAC-see pixel intensities with corresponding immunofluorescence intensity values within each ROI to assess the nucleus-to-nucleus variation in colocalization. […]",
  "note": "“Also recorded” adds a separate entry of the source.",
  "data": [
    {"molecule": "B1", "values": [
      {"measurement": "ATAC-see correlation with H3K9me3 immunofluorescence", "setting": "marker of transcriptionally inactive chromatin", "result": "poorly correlating; also recorded: similarly poor correlations"},
      {"measurement": "ATAC-see correlation with H3K27Ac and RNAPII S2P immunofluorescence signal", "setting": "markers of transcriptionally active chromatin", "result": "strongly correlating; also recorded: similarly positive correlations"}
    ]}
  ]
}
